Reference: patent publication US20220064329A1 (Novo Nordisk, published 2022)
Numbering of substitutions follows the chain as printed. Names may count otherwise.

B1: mAb0137(OA) (antibody, human IgG4 S228P, kappa)
heavy: not shown
light: EIVLTQSPATLSLSPGERATLSCRASQGISDYLHWYQQKPGEAPRLLIKYTSQPATGIPARFSGSGSGTDFTLTISSLEPEDVGVYYCQNGHSFPLTFGAGTKLELKRTVAAPSVFIFPPSDEQLKSGTASVVCLLNNFYPREAKVQWKVDNALQSGNSQESVTEQDSKDSTYSLSSTLTLSKADYEKHKVYACEVTHQGLSSPVTKSFNRGEC
chain: VESKYGPPCPPCPAPEFLGGPSVFLFPPKPKDTLMISRTPEVTCVVVDVSQEDPEVQFNWYVDGVEVHNAKTKPREEQFNSTYRVVSVLTVLHQDWLNGKEYKCKVSNKGLPSSIEKTISKAKGQPREPQVYTLPPSQEEMTKNQVSLTCLVKGFYPSDIAVEWESNGQPENNYKTTPPVLDSDGSFLLYSKLTVDKSRWQEGNVFSCSVMHEALHNHYTQKSLSLSLGK
B2: mAb0139(OA) (antibody, human IgG4 S228P, kappa)
heavy: not shown
light: B1 light
chain: B1 chain
B3: VH SEQ ID NO 650 / VL SEQ ID NO 414 (antibody, IgG4, V domains shown)
VH: QVQLQESGPGLVKPSQTLSLTCTVSGYSISSDSAWSWIRQPPGKKLEWIGYIQYSGSTNYNPSLKSRVTISRDTSKNQFSLKLSSVTAADTAVYYCARSVNYYGNSFAVGPWGQGTLVTVSS
VL: EIVLTQSPATLSLSPGERATLSCRASQGVSDYLAWYQQKPGQAPRLLIKYASQPATGIPARFSGSGSGTDFTLTISSLEPEDFAVYYCQNGHSFPLTFGQGTKLEIK
notes: humanized 11F2; IgG4 S228P/kappa
B4: VH SEQ ID NO 650 / VL SEQ ID NO 422 (antibody, IgG4, V domains shown)
VH: B3 VH
VL: B3 VL with N90Q
notes: as for B3
B5: VH SEQ ID NO 650 / VL SEQ ID NO 430 (antibody, IgG4, V domains shown)
VH: B3 VH
VL: B3 VL with A84G
notes: as for B3
B6: VH SEQ ID NO 650 / VL SEQ ID NO 438 (antibody, IgG4, V domains shown)
VH: B3 VH
VL: B3 VL with F83V
notes: as for B3
B7: VH SEQ ID NO 650 / VL SEQ ID NO 446 (antibody, IgG4, V domains shown)
VH: B3 VH
VL: B3 VL with A51T
notes: as for B3
B8: VH SEQ ID NO 650 / VL SEQ ID NO 454 (antibody, IgG4, V domains shown)
VH: B3 VH
VL: B3 VL with A34H, Q42E
notes: as for B3
B9: VH SEQ ID NO 650 / VL SEQ ID NO 462 (antibody, IgG4, V domains shown)
VH: B3 VH
VL: B3 VL with A34H, Q100A
notes: as for B3
B10: VH SEQ ID NO 650 / VL SEQ ID NO 470 (antibody, IgG4, V domains shown)
VH: B3 VH
VL: B3 VL with A34H
notes: as for B3
B11: VH SEQ ID NO 650 / VL SEQ ID NO 478 (antibody, IgG4, V domains shown)
VH: B3 VH
VL: B3 VL with A34H, N90Q
notes: as for B3
B12: VH SEQ ID NO 650 / VL SEQ ID NO 486 (antibody, IgG4, V domains shown)
VH: B3 VH
VL: B3 VL with A34H, A84G
notes: as for B3
B13: VH SEQ ID NO 650 / VL SEQ ID NO 494 (antibody, IgG4, V domains shown)
VH: B3 VH
VL: B3 VL with A34H, F83V
notes: as for B3
B14: VH SEQ ID NO 650 / VL SEQ ID NO 502 (antibody, IgG4, V domains shown)
VH: B3 VH
VL: B3 VL with A34H, A51T
notes: as for B3
B15: VH SEQ ID NO 514 / VL SEQ ID NO 326 (antibody, IgG4, V domains shown)
VH: B3 VH with K13E, Q16D, T23A, S30T, I70M, A89L, P111Y
VL: B3 VL with V29I, A34H, Q42E, A51T, A84G, Q100A, I106L
notes: as for B3
B16: VH SEQ ID NO 514 / VL SEQ ID NO 342 (antibody, IgG4, V domains shown)
VH: B3 VH with K13E, Q16D, T23A, S30T, I70M, A89L, P111Y
VL: B3 VL with V29I, A34H, A51T, T69R, Q100A, I106L
notes: as for B3
B17: mAb0109 (antibody, human IgG4 S228P, kappa, V domains shown)
VH: DVQLQESGPGLVEPSQSLSLTCTVTGYSITSDSAWSWIRQFPGNKLEWMGYIQYSGSTNYNPSLKSRISVTRDTSKNQFFLRLSSVTAEDTATYYCTRSVNYYGNSFAVGYWGQGTSVTVSS
VL: EIVLTQSPATLSLSPGERATLSCRASQGISDYLHWYQQKPGEAPRLLIKYTSQPATGIPARFSGSGSGTDFTLTISSLEPEDVGVYYCQSGHSFPLTFGAGTKLELKR
notes: humanized 11F2 variant, first round
B18: mAb0110 (antibody, human IgG4 S228P, kappa, V domains shown)
VH: B3 VH with Q1D, K45G, A108W, G110D
VL: DIVMTQSPATLSVTAGDRVSLSCRASQGISDYLHWYQQKSHESPRLLIKYTSQPVSGIPSRFSGSGSGSEFTLSINSVEPEDVGVYYCQNGHSFPLTFGAGTKLELKR
notes: as for B17
B19: mAb0112 (antibody, human IgG4 S228P, kappa, V domains shown)
VH: B3 VH with Q1D, K13E, S30T, P41F, I49M, A89E, A108W, P111Y, L117S
VL: B17 VL with S90N
notes: as for B17
B20: mAb0113 (antibody, human IgG4 S228P, kappa)
heavy: not shown
light: B1 light
notes: as for B17
B21: mAb0013 (antibody, V domains shown)
VH: QIQLVQSGPELKKPGETVKISCKASGYTFTDYSIQWVKQAPGKGLKWMGWINTETGKPSYADDLKGRSAFSLETSGSTAYLQISNLKNEDMATYFCVRDDYYGREDYWGQGTTLTVSS
VL: DIVMTQSPSSLTVTAGEKVTVSCKSSQSLLNSGDQKNYLTWYQQKPGQPPKLLIYWASTRESGVPDRFTGSGSGTDFTLTISSVQAEDLAVYYCQNDFSYPYTFGGGTKLEIK
B22: mAb7250 (antibody, V domains shown)
VH: EVQLVESGGGLVKPGGSLRLSCAASGFTFTSYSMSWVRQAPGKGLEWVSSISSRSSYICYADSVKGRFTISRDNAKNSLYLQMNSLRAEDTAVYYCAREGDTGSIGGDYMDVWGKGTTVTVSS
VL: not shown
B23: mAb0701 (antibody, V domains shown)
VH: QIQLQQSGPELVKPGTSVKMACKASDYTFTDYYLHWVKQRPGQGLEWIGWIYPGSGNTKFNEKFKGKATLTVDTSSSTAYMHLSSLTSDDTAVYFCTRVLGRGAMDYWGQGTSVTVSS
VL: DIVLTQSPPSLAVSLGQRAIISCKASQSVSFAGTSLMYWYQQKPGQQPKVLMYRASNLEAGVPIRFSGSGSGTDFTLNIHPVEEDDVATYYCQQSREYPYTFGGGTKLEIK

These binders were tested against T1, recombinant human activated Factor VII (FVIIa) (human, UniProt P08709 61-212; P08709 213-466, ten glutamate residues of the Gla domain may be gamma-carboxylated) (assay: cell-based or functional assay).
T1 sequence 1: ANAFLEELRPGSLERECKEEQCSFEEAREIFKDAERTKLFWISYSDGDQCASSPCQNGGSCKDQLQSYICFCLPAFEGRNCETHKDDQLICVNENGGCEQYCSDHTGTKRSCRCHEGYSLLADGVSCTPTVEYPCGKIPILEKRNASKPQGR
T1 sequence 2: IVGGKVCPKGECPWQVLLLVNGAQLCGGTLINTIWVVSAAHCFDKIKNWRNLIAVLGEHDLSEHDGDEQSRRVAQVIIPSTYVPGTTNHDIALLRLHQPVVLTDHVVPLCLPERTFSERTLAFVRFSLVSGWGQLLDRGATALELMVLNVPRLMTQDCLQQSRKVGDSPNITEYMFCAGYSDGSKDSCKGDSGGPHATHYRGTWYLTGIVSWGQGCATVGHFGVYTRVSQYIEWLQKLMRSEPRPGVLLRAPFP

Q: For B1, which “AT inhibition (kinh %)” value is on record?
A: Its value is 105%.

Q: What about the “TGT activity (%% FVIIa)” value of the same binder?
A: Its value is 102%.

Q: How did the “AT inhibition (kinh %)” value turn out when B2 was run?
A: Its value is 110%.

Q: What about the “TGT activity (%% FVIIa)” value of the same binder?
A: Its value is 100%.

These binders were tested against T1, recombinant human activated Factor VII … (assay: BLI (Fortebio)).

Q: For B3, which Kd is on record?
A: The Kd was 84 nM.

Q: B4 was tested. Which Kd did it give?
A: Its Kd is 2600 nM.

Q: How did the Kd turn out when B5 was run?
A: The Kd was 28 nM.

Q: How did the Kd turn out when B6 was run?
A: The Kd was 28 nM.

Q: B7 was tested. Which Kd did it give?
A: The Kd was 39 nM.

Q: B8 was tested. Which Kd did it give?
A: Its Kd is 1.4 nM.

Q: With B9 as the binder, how does the Kd read?
A: The Kd was 1.6 nM.

Q: For B10, which Kd is on record?
A: Its Kd is 1.6 nM.

Q: For B11, which Kd is on record?
A: Its Kd is 3 nM.

Q: Which Kd does the source give for B12 here?
A: Its Kd is 1.3 nM.

Q: How did the Kd turn out when B13 was run?
A: The Kd was 1.6 nM.

Q: With B14 as the binder, how does the Kd read?
A: Its Kd is 1.3 nM.

Q: How did the Kd turn out when B15 was run?
A: Its Kd is 0.75 nM.

Q: Which Kd does the source give for B16 here?
A: Its Kd is 1.3 nM.

Each binder was assayed against T2, recombinant human activated Factor VII (FVIIa) (human, UniProt P08709 61-212; P08709 213-466, Gla domain: ten glutamate residues may be gamma-carboxylated) (assay: Bio-Layer Interferometry (Fortebio), antibody on anti-human tips, FVIIa 25-200 nM).
T2 construct: two-chain form after cleavage between Arg152 and Ile153; light chain (Gla, EGF domains) and heavy chain (protease domain) tethered by a disulfide bond; also called rFVIIa; human FVIIa
T2 sequence 1: T1 sequence 1
T2 sequence 2: T1 sequence 2
Description: All steps were performed in running buffer (20 mM HEPES buffer (pH 7.4), 150 mM NaCl, 5 mM CaCl2, 0.03% Tween 20, 1 mg/ml IgG-free BSA) at […] Antibodies were captured on anti-human tips (AHC, Fortebio) for 3 min at a concentration of 10 ug/ml. This was followed by a 3 min incubation to establish a baseline. Following this, association was monitored for 3 min using four different concentrations of VIIa (25 nm, 50 nM, 100 nM, and 200 nM), followed by a 3 mi dissociation. Sensorgrams were analysed using Fortebio data analysis software.

Q: How did the Kd turn out when B17 was run?
A: Its Kd is 11 nM.

Q: How did the Kd turn out when B18 was run?
A: The Kd was 42000 nM.

Q: Which Kd does the source give for B19 here?
A: The Kd was 13 nM.

Q: For B20, which Kd is on record?
A: Its Kd is 1.8 nM.

The binders below were run against T2, recombinant human activated Factor VII … (assay: cell-based or functional assay).

Q: Which results are given for B21?
A: AT inhibition (kinh %): 747%; TGT activity (% FVIIa): 128 % FVIIa

Q: What does the source list for B22?
A: AT inhibition (kinh %): 23%; TGT activity (% FVIIa): 91 % FVIIa

Q: With B23 as the binder, how does the “AT inhibition (kinh %)” value read?
A: The value was 26%.

Q: And the “TGT activity (% FVIIa)” value?
A: Its value is 88 % FVIIa.
